Measured values reported in patent US20110251266, “APTAMER FOR NGF AND USE THEREOF” (Shionogi & Co., Ltd., published 2011).

Assays:
Conditions in all cases: tags: R&D Systems human NGF; chain copies: 2
[1] = molecular target: T1, beta-NGF (nerve growth factor) (Homo sapiens, UniProt P01138 P01138:122-241); test: SPR; more than 30N; cell IC50 26.1 nM
[2] = molecular target: T1, beta-NGF (nerve growth factor); test: SPR; more than 30N; inhibits TrkA and P75 binding
Description: As directed in BIAcore Company's protocol, Protein A (21181, PIERCE) was immobilized on a CM5 sensor chip. About 1100 RU of human Trk A-Fc fused with the Fc portion of IgG (175-TK, R&D systems) was immobilized thereon. As the analyte, a mixture of NGF (0.1 μM) and each aptamer (0.33 μM) was injected after being allowed to stand for 30 minutes. […] When NGF binds stronger to a receptor than an aptamer, the aptamer may be removed and NGF may bind to the receptor. […] Using the binding amount of NGF and NGF receptor without an aptamer as 100, the binding amount of NGF and NGF receptor added with an aptamer was determined as a correction value. Here, the binding amount is the RU value at the peak top of the sensorgram of BIAcore (RU value immediately after completion of NGF injection). […] A similar experiment was performed for another receptor P75 (p75-Fc; R&D systems).

[3] = molecular target: T1, beta-NGF (nerve growth factor); test: cell_activity; Neuroscreen-1 neurite outgrowth, 1.1 nM NGF
Description: The neurite outgrowth inhibitory activity of aptamer was evaluated by using Neuroscreen-1 cell, which is a subclone of PC-12 cells. 2500 Cells per well were cultured for one day in an RPMI-1640 medium containing 2.5% horse serum and 1.25% fetal bovine serum in a 96 well flat-bottom plate coated with collagen type IV. A mixed solution of NGF (final concentration 15 ng/ml or 1.1 nM) prereacted in a serum-free RPMI-1640 medium at room temperature or 37° C. for 30 min to 1 hr and an aptamer (final concentration 500-3 nM) was added. Two or three days later, the cytoplasm and nuclei were stained using Cellomics Neurite Outgrowth Kits (manufactured by Thermo Scientific), and neurite length per cell was measured by Cellomics ArrayScan VTI (manufactured by Thermo Scientific). With the neurite length per cell obtained by culturing the cell for 2 days with the addition of NGF alone as inhibitory activity 0%, and that of the cell obtained by NGF free culture as inhibitory activity 100%, the inhibitory activity of the aptamer was calculated from the neurite length per cell obtained by culturing with the addition of NGF and the aptamer in mixture. […] When the inhibitory activity was 0% or below, ‘0%’ is indicated. […] The 50% inhibitory concentration was determined from the concentrations at two, above and below points sandwiching the 50% inhibitory activity.

[4] = molecular target: T1, beta-NGF (nerve growth factor); test: cell_activity; Neuroscreen-1 neurite outgrowth; 92% inhibition at 300 nM (Table 5)

T1 sequence (P01138 122-241, one chain of several): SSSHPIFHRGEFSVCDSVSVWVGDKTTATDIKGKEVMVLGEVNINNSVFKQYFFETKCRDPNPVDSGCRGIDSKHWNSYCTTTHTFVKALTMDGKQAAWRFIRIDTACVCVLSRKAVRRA

B1: SEQ44 aptamer (ssRNA)
RNA: GGGGAACUUCGACCAGAAGUUUGAAAGAAACCCAAAAUUAGCACCAUAAUAUGUGCGCAUACAUGGAUCCUCA
modifications: 2'-F pyrimidines
binding result [1]: binds

B2: SEQ60 aptamer (ssRNA)
RNA: GGGAGAACUUCGACCAGAGGAUUUGAAAAAAACCCGAAUAAAGAUAACAGUAUGUGCGCAUACAUGGAUCCUCA
modifications: 2'-F pyrimidines
binding result [2]: binds

B3: SEQ68 aptamer (ssRNA)
RNA: GGGAGAACUUCGACCAGAAGUCGAGAGCGAAAGAAACUCCCAAAACACAGUAUGUGCGCAUACAUGGAUCCUCA
modifications: 2'-F pyrimidines
IC50 [3]: 1.9 nM

GGGAAGCCUGUGGAGCUGCAGGAUGAAAAAAACCCAAA (ssRNA, 2'-F pyrimidines) [SEQ35 aptamer]
IC50 [4]: 91.5 nM
